Assay results: PMC6879014, “Biophysical screening methods for extracellular domain peptide receptors, application to natriuretic peptide receptor C ligands” (Chemical Biology & Drug Design, 2018)
“And” between values parts separate entries of the source, which are not always exact repeats. Equal values may be shown once. Bridge positions count the residues as written; N and C are the ends. Ends that are not written are not given here. * marks the point of attachment. 5FAM = O=C1OC2(c3ccc(O)cc3Oc3cc(O)ccc32)c2ccc(C(=O)*)cc21

What was measured:
NPR‐C = conditions: literature value in Table 2; read-out: K i, literature; cited from earlier work
Text: Table 2 Summary of control peptide FP analyses | column: K i (competitive; nM)

[1] = target: T1, extracellular domain (ECD) NPR‐C (27–481)‐6His (Homo sapiens, UniProt P17342); assay: Surface plasmon resonance, immobilized extracellular domain NPR‐C; assay type: binding; conditions: SPR, experimentally observed R max as percentage of theoretical R max (quality control), each table line a separate run
T1 construct: extracellular domain (ECD) NPR‐C (27–481)‐6His; 6His (C); purchased Peak Proteins, UK
T1 sequence (P17342 27-481): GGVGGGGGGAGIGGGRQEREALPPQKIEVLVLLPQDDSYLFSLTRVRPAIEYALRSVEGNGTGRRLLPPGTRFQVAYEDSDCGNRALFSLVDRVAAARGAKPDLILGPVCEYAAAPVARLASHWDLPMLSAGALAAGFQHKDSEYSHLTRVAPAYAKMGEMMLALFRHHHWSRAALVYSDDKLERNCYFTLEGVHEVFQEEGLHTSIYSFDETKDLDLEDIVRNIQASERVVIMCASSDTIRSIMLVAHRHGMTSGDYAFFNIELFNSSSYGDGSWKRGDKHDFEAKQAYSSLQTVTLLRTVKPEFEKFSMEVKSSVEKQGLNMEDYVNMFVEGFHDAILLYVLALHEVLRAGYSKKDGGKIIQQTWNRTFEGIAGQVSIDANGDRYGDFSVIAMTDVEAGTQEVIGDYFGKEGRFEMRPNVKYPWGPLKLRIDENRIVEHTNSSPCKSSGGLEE

[2] = target: T2, Human full‐length (FL) NPR‐C (27–541)‐10His‐Flag (Homo sapiens, UniProt P17342); assay: Surface plasmon resonance, immobilized full‐length NPR‐C; assay type: binding; conditions: SPR, experimentally observed R max as percentage of theoretical R max (quality control), each table line a separate run
T2 construct: Human full‐length (FL) NPR‐C (27–541)‐10His‐Flag; 10His (C); Flag (C); purchased Peak Proteins, UK
T2 sequence (P17342 27-541): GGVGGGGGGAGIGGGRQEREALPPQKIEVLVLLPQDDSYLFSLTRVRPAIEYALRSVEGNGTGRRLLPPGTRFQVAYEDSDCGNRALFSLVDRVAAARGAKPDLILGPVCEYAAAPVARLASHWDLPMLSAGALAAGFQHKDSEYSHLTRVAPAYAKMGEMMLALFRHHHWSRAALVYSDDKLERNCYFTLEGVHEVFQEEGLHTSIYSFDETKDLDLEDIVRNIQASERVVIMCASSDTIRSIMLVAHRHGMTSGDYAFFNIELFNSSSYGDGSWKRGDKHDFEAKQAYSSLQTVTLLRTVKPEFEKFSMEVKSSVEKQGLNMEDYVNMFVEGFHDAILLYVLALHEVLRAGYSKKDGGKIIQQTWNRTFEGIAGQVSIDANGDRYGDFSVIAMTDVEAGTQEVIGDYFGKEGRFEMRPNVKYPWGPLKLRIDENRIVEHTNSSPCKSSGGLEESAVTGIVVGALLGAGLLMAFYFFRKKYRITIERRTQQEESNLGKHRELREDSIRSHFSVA

FL NPR‐C = target: T3, FL NPR‐C (Homo sapiens, UniProt P17342); assay: Thermal shift assay (Protein Thermal Shift Dye Kit); assay type: binding; conditions: for ΔTm: FL NPR‐C 0.1 mg/ml, 1× dye, ramp 25–99°C, T m mean across four replicates
T3 construct: Human full‐length (FL) NPR‐C (27–541)‐10His‐Flag; 10His (C); Flag (C); purchased Peak Proteins, UK
T3 sequence (P17342 27-541): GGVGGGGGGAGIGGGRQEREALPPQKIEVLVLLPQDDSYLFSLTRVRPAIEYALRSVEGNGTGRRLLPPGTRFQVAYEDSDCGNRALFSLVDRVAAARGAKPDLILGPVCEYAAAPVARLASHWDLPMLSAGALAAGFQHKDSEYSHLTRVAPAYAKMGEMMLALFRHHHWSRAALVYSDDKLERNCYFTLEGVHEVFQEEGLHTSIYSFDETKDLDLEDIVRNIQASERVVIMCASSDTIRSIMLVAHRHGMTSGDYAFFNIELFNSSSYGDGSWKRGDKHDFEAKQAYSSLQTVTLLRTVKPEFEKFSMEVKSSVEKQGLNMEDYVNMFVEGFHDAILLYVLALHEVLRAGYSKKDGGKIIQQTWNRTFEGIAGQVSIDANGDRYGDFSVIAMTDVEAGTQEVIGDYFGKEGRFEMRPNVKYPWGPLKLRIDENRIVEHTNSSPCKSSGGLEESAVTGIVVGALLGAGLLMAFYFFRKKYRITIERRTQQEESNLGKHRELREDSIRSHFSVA
Method: Thermal shift assays were performed using Thermo Fisher Scientific Protein Thermal Shift™ Dye Kit, and samples were prepared according to the accompanying protocol.17 A solution of Protein Thermal Shift™ Dye was always prepared fresh from the 1,000× stock. Optimization experiments were performed by titrating NPR‐C protein (0.1, 0.05 and 0.01 mg/ml) and Protein Thermal Shift™ Dye concentration (80, 8 and 1×) to identify conditions that achieved melt curves with the greatest dynamic fluorescence range and least standard error in T m (melt temperature) values. […] The total volume for each reaction was 20.0 μl. Each melt reaction was mixed at least 10 times, and the plate was sealed with MicroAmp® Optical Adhesive Film. The plate was then spun it at 112 g for 1 min and placed on ice until measurement. Thermal melt reactions were performed and analysed using a 7500 Real‐Time PCR System®. A 5‐carboxy‐X‐rhodamine (ROX) reporter and a continuous temperature ramp of 25–99°C were used (2 min per step). Optical filters were set at 580 nm (excitation) and 623 nm (emission). The T m for each sample was obtained by differentiating the original fluorescence melt curve using OriginPro mathematical and peak identification functions. The reported T m values are the mean across four replicates.

[3] = target: T4, extracellular domain (ECD) NPR-C (27–481)-6His (human, UniProt P17342-2 27-481); assay: fluorescence polarisation; competition against 15 nM Flu-P19 probe; FL NPR-C 150 nM or ECD NPR-C 400 nM; competitor 4.89 nM-2.5 uM; HEPES buffer, 3% DMSO; Ki computed from IC50 with a web-based converter; conditions: both partners purified
T4 construct: natriuretic peptide receptor C (NPR-C), human, extracellular domain, residues 27-481; Mainly monomer (~55 kDa) on non-reducing SDS-PAGE; the discussion says ~25% of the molecules are disulphide-bonded; The tag's end is read from the construct's name; also called (27–481)-6His (ECD); extracellular NPR-C; source: expressed and isolated at Peak Proteins, UK; not shown: 6His, C-terminal, kept
T4 sequence (looked up): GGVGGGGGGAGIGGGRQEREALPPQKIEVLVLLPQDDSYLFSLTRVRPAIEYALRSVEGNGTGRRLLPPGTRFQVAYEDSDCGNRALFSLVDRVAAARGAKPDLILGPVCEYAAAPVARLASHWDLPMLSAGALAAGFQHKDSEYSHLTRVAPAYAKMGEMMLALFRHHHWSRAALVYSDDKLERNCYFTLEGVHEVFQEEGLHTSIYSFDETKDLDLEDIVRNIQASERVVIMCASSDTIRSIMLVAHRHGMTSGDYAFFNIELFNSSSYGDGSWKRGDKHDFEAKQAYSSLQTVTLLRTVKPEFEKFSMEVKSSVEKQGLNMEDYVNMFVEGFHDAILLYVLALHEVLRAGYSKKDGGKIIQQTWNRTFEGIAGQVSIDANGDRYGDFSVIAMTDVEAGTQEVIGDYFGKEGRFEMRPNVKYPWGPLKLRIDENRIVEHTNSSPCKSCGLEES

[4] = target: T5, Human full-length (FL) NPR-C (27–541)-10His-Flag (human, UniProt P17342-2 27-540); assay: as above; conditions: both partners purified
T5 construct: natriuretic peptide receptor C (NPR-C), human, residues 27-541; Primarily a disulphide-bonded dimer (~130 kDa) on non-reducing SDS-PAGE; The tag's end is read from the construct's name (27–541)-10His-Flag; also called natriuretic peptide receptor C; natriuretic peptide receptor type-C; source: expressed and isolated at Peak Proteins, UK; not shown: 10His, C-terminal, kept; Flag, C-terminal, kept
T5 sequence (looked up): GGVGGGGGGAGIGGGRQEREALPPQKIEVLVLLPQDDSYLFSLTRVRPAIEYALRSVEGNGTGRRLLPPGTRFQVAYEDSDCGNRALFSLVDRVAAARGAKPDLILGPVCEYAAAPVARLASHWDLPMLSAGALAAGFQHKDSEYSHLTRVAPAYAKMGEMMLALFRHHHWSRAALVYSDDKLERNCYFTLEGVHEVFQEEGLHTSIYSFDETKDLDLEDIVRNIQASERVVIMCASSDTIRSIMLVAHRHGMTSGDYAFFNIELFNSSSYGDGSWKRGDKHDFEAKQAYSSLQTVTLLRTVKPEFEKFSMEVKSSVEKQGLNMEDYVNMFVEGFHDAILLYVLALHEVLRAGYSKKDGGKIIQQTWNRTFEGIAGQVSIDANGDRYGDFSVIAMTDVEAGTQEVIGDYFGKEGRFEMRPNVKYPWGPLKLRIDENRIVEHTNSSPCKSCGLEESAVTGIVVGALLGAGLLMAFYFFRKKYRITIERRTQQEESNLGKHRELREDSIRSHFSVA

[5] = target: T5, Human full-length (FL) NPR-C …; assay: thermal shift; Protein Thermal Shift Dye Kit; FL NPR-C 0.1 mg/ml, 1x dye; ligand at 1:1 or 10:1 ratio to the protein; ramp 25-99°C; Tm mean of four replicates; conditions: both partners purified
[6] = target: T5, Human full-length (FL) NPR-C …; assay: fluorescence polarisation; competition against 15 nM Flu-P19 probe; FL NPR-C 150 nM or ECD NPR-C 400 nM; competitor 4.89 nM-2.5 uM; HEPES buffer, 3% DMSO; Ki computed from IC50 with a web-based converter; conditions: both partners purified; remark: listed apart in the source
[7] = target: T5, Human full-length (FL) NPR-C …; assay: SPR; steady-state affinity analysis of Flu-P19 on immobilised FL NPR-C; conditions: both partners purified

## C‐type natriuretic peptide [CNP]
NPR‐C
  Ki: 0.023 nM
[1]
  % theoretical R max: 51%
[2]
  % theoretical R max: 31%
FL NPR‐C; FL NPR‐C, ratio not stated in the sentence (Figure 9c,d)
  ΔTm, approximate shift given in text: ~ 11 °C
FL NPR‐C; NPRC + ligand (1:1)
  ΔTm: +8.2 °C
FL NPR‐C; NPRC + ligand (1:10)
  ΔTm: +11.7 °C

B1: C-type natriuretic peptide (ligand)
chain: GLSKGCFGLKLDRIGSMSGLGC
modifications: disulfide 6-22 (inferred)
[3]
  Ki: 0.1 nM
[4]
  IC50: 68.4 nM and 142 nM and 111 nM
  Ki: 0.1 nM
[5]
  ΔTm: ~11 °C
[6]
  IC50: 142 nM
  Ki: 0.49 nM

B2: 5-carboxyfluorescein N-terminus labelled GLSKG[CFGRSLDRIGSLSGLGC]NS (Flu-P19) (peptide)
peptide: 5FAM-GLSKGCFGRSLDRIGSLSGLGCNS
modifications: not fully specified (bridges); cysteine pairing not given here
notes: P19, a peptide identified by phage display (Deschênes et al., cited); also called Flu-P19 probe; source: synthetic peptide, bought: Peptide Protein Research Ltd, UK
[7]
  Kd: ~10 nM
